{
  "source": "paper PMC8024706",
  "about": "(iScience, 2021)",
  "proteins": {"B1": {"name": "PDI I289A (enzyme)", "chain": "not shown"}},
  "target": "the molecule itself",
  "test": "high-speed atomic force microscopy",
  "data": [
    {"protein": "B1", "values": [
      {"measurement": "stoichiometry N", "result": 2}
    ]}
  ]
}
